Measurements published in US20210284734A1 (SYMPHOGEN A S, published 2021).

B1: 12819.17149 Fab (Fab, V domains shown)
VH: EVQLLESGGGLVQPGGSLRLSCAASGFTFTRYDMVWVRQAPGKGLEWVAGIGDSNKMTRYAPAVKGRATISRDNSKNTLYLQMNSLRAEDTAVYYCAKGSCIACWDEAGRIDAWGQGTLVTVSS
VL: SYELTQDPAVSVALGQTVRITCSGGGSYDGSSYYGWYQQKPGQAPVTVIYNNNNRPSDIPDRFSGSSSGNTASLTITGAQAEDEADYYCGSYDRPETNSDYVGMFGSGTKVTVL
notes: monomeric Fab fragment
B2: 12865.17150 Fab (Fab, V domains shown)
VH: EVQLLESGGGLVQPGGSLRLSCAASGFDFSDHGMQWVRQAPGKGLEYVGVIDTTGRYTYYAPAVKGRATISRDNSKNTLYLQMNSLRAEDTAVYYCAKTTCVGGYLCNTVGSIDAWGQGTLVTVSS
VL: SYELTQDPAVSVALGQTVRITCSGGGSSSYYGWYQQKPGQAPVTVIYDDTNRPSGIPDRFSGSSSGNTASLTITGAQAEDEADYYCGGYEGSSHAGIFGSGTKVTVL
notes: monomeric Fab fragment
B3: 13112.15380 Fab (Fab, V domains shown)
VH: EVQLLESGGGLVQPGGSLRLSCAASGFTFSSYNMFWVRQAPGKGLEFVAEISGSNTGSRTWYAPAVKGRATISRDNSKNTLYLQMNSLRAEDTAVYYCAKSIYGGYCAGGYSCGVGLIDAWGQGTLVTVSS
VL: SYELTQDPAVSVALGQTVRITCSGGSSDYYGWFQQKPGQAPVTVIYYNNKRPSDIPDRFSGSSSGNTASLTITGAQAEDEADYYCGNADSSVGVFGSGTKVTVL

Target: T1, human PD-1 ECD-Fc K135A (human, UniProt Q15116 21-170)
T1 construct: not shown: human IgG1 Fc, residues P101-K330
Experiment: SPR, Fab on captured PD-1-Fc;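 note: Alanine-scan PD-1 Fc fusions expressed transiently in ExpiCHO, captured on anti-human IgG Fc surface in IBIS MX96, anti-PD-1 Fab association 15 min, dissociation 30 min, Langmuir 1:1 fit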

T1 sequence (Q15116 21-170 K135A): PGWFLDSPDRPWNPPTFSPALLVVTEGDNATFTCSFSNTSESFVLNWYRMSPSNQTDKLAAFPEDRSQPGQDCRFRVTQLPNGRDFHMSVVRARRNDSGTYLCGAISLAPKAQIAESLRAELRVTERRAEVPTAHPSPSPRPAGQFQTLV

Binder | KD mutant/KD wild-type [ratio]
B1 | 4.2
B2 | 1.1
B3 | 1.2

Target: T2, human PD-1 ECD-Fc P130A (human, UniProt Q15116 21-170)
T2 construct: not shown: human IgG1 Fc, residues P101-K330
Experiment: SPR, Fab on captured PD-1-Fc;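 note: Alanine-scan PD-1 Fc fusions expressed transiently in ExpiCHO, captured on anti-human IgG Fc surface in IBIS MX96, anti-PD-1 Fab association 15 min, dissociation 30 min, Langmuir 1:1 fit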

T2 sequence (Q15116 21-170 P130A): as the sequence (Q15116 21-170 K135A) above, with P110A, A115K counted along it

Binder | KD mutant/KD wild-type [ratio]
B1 | 105
B2 | 0.5
B3 | 0.9

Target: T3, human PD-1 ECD-Fc D85A (human, UniProt Q15116 21-170)
T3 construct: not shown: human IgG1 Fc, residues P101-K330
Experiment: SPR, Fab on captured PD-1-Fc;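 note: Alanine-scan PD-1 Fc fusions expressed transiently in ExpiCHO, captured on anti-human IgG Fc surface in IBIS MX96, anti-PD-1 Fab association 15 min, dissociation 30 min, Langmuir 1:1 fit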

Binder | KD mutant/KD wild-type [ratio]
B1 | 2.5
B2 | 1.6
B3 | 0.9

Target: T4, human PD-1 ECD-Fc A40T (human, UniProt Q15116 21-170)
T4 construct: also called Rat mutation A40T; not shown: human IgG1 Fc, residues P101-K330
Experiment: SPR, Fab on captured PD-1-Fc;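 note: Alanine-scan PD-1 Fc fusions expressed transiently in ExpiCHO, captured on anti-human IgG Fc surface in IBIS MX96, anti-PD-1 Fab association 15 min, dissociation 30 min, Langmuir 1:1 fit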

Binder | KD mutant/KD wild-type [ratio]
B1 | 2
B2 | 1
B3 | 0.6

Target: T5, human PD-1 ECD-Fc L128A (human, UniProt Q15116 21-170)
T5 construct: not shown: human IgG1 Fc, residues P101-K330
Experiment: SPR, Fab on captured PD-1-Fc

Binder | KD mutant/KD wild-type [ratio]
B1 | 17.1
B2 | 2.1
B3 | 0.9

Target: T6, human PD-1 ECD-Fc A163G (human, UniProt Q15116 21-170)
T6 construct: not shown: human IgG1 Fc, residues P101-K330
Experiment: SPR, Fab on captured PD-1-Fc

T6 sequence (Q15116 21-170 A163G): as the sequence (Q15116 21-170 K135A) above, with A115K, A143G counted along it

Binder | KD mutant/KD wild-type [ratio]
B1 | 1
B2 | 1.1
B3 | 1.1

Target: T7, human PD-1 ECD-Fc G124A (human, UniProt Q15116 21-170)
T7 construct: not shown: human IgG1 Fc, residues P101-K330
Experiment: SPR, Fab on captured PD-1-Fc

T7 sequence (Q15116 21-170 G124A): as the sequence (Q15116 21-170 K135A) above, with G104A, A115K counted along it

Binder | KD mutant/KD wild-type [ratio]
B1 | 0.5
B2 | 4
B3 | 1

Target: T8, human PD-1 ECD-Fc P158A (human, UniProt Q15116 21-170)
T8 construct: not shown: human IgG1 Fc, residues P101-K330
Experiment: SPR, Fab on captured PD-1-Fc

T8 sequence (Q15116 21-170 P158A): as the sequence (Q15116 21-170 K135A) above, with A115K, P138A counted along it

Binder | KD mutant/KD wild-type [ratio]
B1 | 1.2
B2 | 0.9
B3 | 1

Target: T9, human PD-1 ECD-Fc D92A (human, UniProt Q15116 21-170)
T9 construct: not shown: human IgG1 Fc, residues P101-K330
Experiment: SPR, Fab on captured PD-1-Fc

T9 sequence (Q15116 21-170 D92A): as the sequence (Q15116 21-170 K135A) above, with D72A, A115K counted along it

Binder | KD mutant/KD wild-type [ratio]
B1 | 1.2
B2 | 0.8
B3 | 0.9

Target: T10, human PD-1 ECD-Fc S71A (human, UniProt Q15116 21-170)
T10 construct: not shown: human IgG1 Fc, residues P101-K330
Experiment: SPR, Fab on captured PD-1-Fc

T10 sequence (Q15116 21-170 S71A): as the sequence (Q15116 21-170 K135A) above, with S51A, A115K counted along it

Binder | KD mutant/KD wild-type [ratio]
B1 | 0.9
B2 | 0.9
B3 | 0.9

Target: T11, human PD-1 ECD-Fc S159A (human, UniProt Q15116 21-170)
T11 construct: not shown: human IgG1 Fc, residues P101-K330
Experiment: SPR, Fab on captured PD-1-Fc

T11 sequence (Q15116 21-170 S159A): as the sequence (Q15116 21-170 K135A) above, with A115K, S139A counted along it

Binder | KD mutant/KD wild-type [ratio]
B1 | 1.1
B2 | 0.8
B3 | 0.9

Target: T12, human PD-1 ECD-Fc P152A (human, UniProt Q15116 21-170)
T12 construct: not shown: human IgG1 Fc, residues P101-K330
Experiment: SPR, Fab on captured PD-1-Fc

T12 sequence (Q15116 21-170 P152A): as the sequence (Q15116 21-170 K135A) above, with A115K, P132A counted along it

Binder | KD mutant/KD wild-type [ratio]
B1 | 1.4
B2 | 0.9
B3 | 1

Target: T13, human PD-1 ECD-Fc A80G (human, UniProt Q15116 21-170)
T13 construct: not shown: human IgG1 Fc, residues P101-K330
Experiment: SPR, Fab on captured PD-1-Fc

T13 sequence (Q15116 21-170 A80G): as the sequence (Q15116 21-170 K135A) above, with A60G, A115K counted along it

Binder | KD mutant/KD wild-type [ratio]
B1 | 1.2
B2 | 0.4
B3 | 1

Target: T14, human PD-1 ECD-Fc N102A (human, UniProt Q15116 21-170)
T14 construct: not shown: human IgG1 Fc, residues P101-K330
Experiment: SPR, Fab on captured PD-1-Fc

T14 sequence (Q15116 21-170 N102A): as the sequence (Q15116 21-170 K135A) above, with N82A, A115K counted along it

Binder | KD mutant/KD wild-type [ratio]
B1 | 1.5
B2 | 0.6
B3 | 0.7

Target: T15, human PD-1 ECD-Fc Y68A (human, UniProt Q15116 21-170)
T15 construct: not shown: human IgG1 Fc, residues P101-K330
Experiment: SPR, Fab on captured PD-1-Fc

T15 sequence (Q15116 21-170 Y68A): as the sequence (Q15116 21-170 K135A) above, with Y48A, A115K counted along it

Binder | KD mutant/KD wild-type [ratio]
B1 | 2.2
B2 | 1.4
B3 | 0.8

Target: T16, human PD-1 ECD-Fc G103A (human, UniProt Q15116 21-170)
T16 construct: not shown: human IgG1 Fc, residues P101-K330
Experiment: SPR, Fab on captured PD-1-Fc

Binder | KD mutant/KD wild-type [ratio]
B1 | 1.1
B2 | 0.8
B3 | 0.9

Target: T17, human PD-1 ECD-Fc A132G (human, UniProt Q15116 21-170)
T17 construct: not shown: human IgG1 Fc, residues P101-K330
Experiment: SPR, Fab on captured PD-1-Fc

T17 sequence (Q15116 21-170 A132G): as the sequence (Q15116 21-170 K135A) above, with A112G, A115K counted along it

Binder | KD mutant/KD wild-type [ratio]
B1 | 53.4
B2 | 1.4
B3 | 1

Target: T18, human PD-1 ECD-Fc N49A (human, UniProt Q15116 21-170)
T18 construct: not shown: human IgG1 Fc, residues P101-K330
Experiment: SPR, Fab on captured PD-1-Fc

T18 sequence (Q15116 21-170 N49A): as the sequence (Q15116 21-170 K135A) above, with N29A, A115K counted along it

Binder | KD mutant/KD wild-type [ratio]
B1 | 1.1
B2 | 0.7
B3 | 1

Target: T19, human PD-1 ECD-Fc P83A (human, UniProt Q15116 21-170)
T19 construct: not shown: human IgG1 Fc, residues P101-K330
Experiment: SPR, Fab on captured PD-1-Fc

T19 sequence (Q15116 21-170 P83A): as the sequence (Q15116 21-170 K135A) above, with P63A, A115K counted along it

Binder | KD mutant/KD wild-type [ratio]
B1 | 1.5
B2 | 0.8
B3 | 0.9

Target: T20, human PD-1 ECD-Fc P28L (human, UniProt Q15116 21-170)
T20 construct: also called Rat mutation P28L; not shown: human IgG1 Fc, residues P101-K330
Experiment: SPR, Fab on captured PD-1-Fc

T20 sequence (Q15116 21-170 P28L): as the sequence (Q15116 21-170 K135A) above, with P8L, A115K counted along it

Binder | KD mutant/KD wild-type [ratio]
B1 | 1.9
B2 | 0.5
B3 | 0.7

Target: T21, human PD-1 ECD-Fc Q133A (human, UniProt Q15116 21-170)
T21 construct: not shown: human IgG1 Fc, residues P101-K330
Experiment: SPR, Fab on captured PD-1-Fc

T21 sequence (Q15116 21-170 Q133A): as the sequence (Q15116 21-170 K135A) above, with Q113A, A115K counted along it

Binder | KD mutant/KD wild-type [ratio]
B1 | 0.7
B2 | 1.4
B3 | 0.9

Target: T22, human PD-1 ECD-Fc S157A (human, UniProt Q15116 21-170)
T22 construct: not shown: human IgG1 Fc, residues P101-K330
Experiment: SPR, Fab on captured PD-1-Fc

T22 sequence (Q15116 21-170 S157A): as the sequence (Q15116 21-170 K135A) above, with A115K, S137A counted along it

Binder | KD mutant/KD wild-type [ratio]
B1 | 0.9
B2 | 1
B3 | 1

Target: T23, human PD-1 ECD-Fc S73A (human, UniProt Q15116 21-170)
T23 construct: not shown: human IgG1 Fc, residues P101-K330
Experiment: SPR, Fab on captured PD-1-Fc

T23 sequence (Q15116 21-170 S73A): as the sequence (Q15116 21-170 K135A) above, with S53A, A115K counted along it

Binder | KD mutant/KD wild-type [ratio]
B1 | 0.9
B2 | 0.5
B3 | 0.9

Target: T24, human PD-1 ECD-Fc C93A (human, UniProt Q15116 21-170)
T24 construct: not shown: human IgG1 Fc, residues P101-K330
Experiment: SPR, Fab on captured PD-1-Fc

T24 sequence (Q15116 21-170 C93A): as the sequence (Q15116 21-170 K135A) above, with C73A, A115K counted along it

Binder | KD mutant/KD wild-type [ratio]
B1 | 1.2
B2 | 0.9
B3 | 1.1

Target: T25, human PD-1 ECD-Fc T36A (human, UniProt Q15116 21-170)
T25 construct: not shown: human IgG1 Fc, residues P101-K330
Experiment: SPR, Fab on captured PD-1-Fc

T25 sequence (Q15116 21-170 T36A): as the sequence (Q15116 21-170 K135A) above, with T16A, A115K counted along it

Binder | KD mutant/KD wild-type [ratio]
B1 | 1
B2 | 1
B3 | 0.9

Target: T26, human PD-1 ECD-Fc A149G (human, UniProt Q15116 21-170)
T26 construct: not shown: human IgG1 Fc, residues P101-K330
Experiment: SPR, Fab on captured PD-1-Fc

T26 sequence (Q15116 21-170 A149G): as the sequence (Q15116 21-170 K135A) above, with A115K, A129G counted along it

Binder | KD mutant/KD wild-type [ratio]
B1 | 0.8
B2 | 1
B3 | 1

Target: T27, human PD-1 ECD-Fc G119A (human, UniProt Q15116 21-170)
T27 construct: not shown: human IgG1 Fc, residues P101-K330
Experiment: SPR, Fab on captured PD-1-Fc

T27 sequence (Q15116 21-170 G119A): as the sequence (Q15116 21-170 K135A) above, with G99A, A115K counted along it

Binder | KD mutant/KD wild-type [ratio]
B1 | 1
B2 | 0.4
B3 | 1

Target: T28, human PD-1 ECD-Fc G22A (human, UniProt Q15116 21-170)
T28 construct: not shown: human IgG1 Fc, residues P101-K330
Experiment: SPR, Fab on captured PD-1-Fc

T28 sequence (Q15116 21-170 G22A): as the sequence (Q15116 21-170 K135A) above, with G2A, A115K counted along it

Binder | KD mutant/KD wild-type [ratio]
B1 | 1
B2 | 0.9
B3 | 1

Target: T29, human PD-1 ECD-Fc K78A (human, UniProt Q15116 21-170)
T29 construct: not shown: human IgG1 Fc, residues P101-K330
Experiment: SPR, Fab on captured PD-1-Fc

T29 sequence (Q15116 21-170 K78A): as the sequence (Q15116 21-170 K135A) above, with K58A, A115K counted along it

Binder | KD mutant/KD wild-type [ratio]
B1 | 2.6
B2 | 0.7
B3 | 1.1

Target: T30, human PD-1 ECD-Fc H155A (human, UniProt Q15116 21-170)
T30 construct: not shown: human IgG1 Fc, residues P101-K330
Experiment: SPR, Fab on captured PD-1-Fc

T30 sequence (Q15116 21-170 H155A): as the sequence (Q15116 21-170 K135A) above, with A115K, H135A counted along it

Binder | KD mutant/KD wild-type [ratio]
B1 | 1.1
B2 | 1
B3 | 1

Target: T31, human PD-1 ECD-Fc T145A (human, UniProt Q15116 21-170)
T31 construct: not shown: human IgG1 Fc, residues P101-K330
Experiment: SPR, Fab on captured PD-1-Fc

Binder | KD mutant/KD wild-type [ratio]
B1 | 1.1
B2 | 0.7
B3 | 82.4

Target: T32, human PD-1 ECD-Fc T98A (human, UniProt Q15116 21-170)
T32 construct: not shown: human IgG1 Fc, residues P101-K330
Experiment: SPR, Fab on captured PD-1-Fc

Binder | KD mutant/KD wild-type [ratio]
B1 | 1.1
B2 | 0.9
B3 | 1
